In the supplement of paper PMC10567573:

B1: HSP90AB1 (parent)
chain: TLRQKAEADKNDKAVKDLVVLLFE
B2: CIB1 (parent)
chain: DLSRLVNCLTGEGEDTRLSASEMK

Variants of: B1
Test: protein stability index of a GFP-peptide fusion (GPS, HEK-293T) (PSI 1-6); higher = more stable
Settings: c terminus: a fixed tail appended
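Also: lentivirally expressed fusions sorted by FACS into six bins by GFP to DsRed ratio, PSI derived from sequencing read proportions per bin multiplied by bin number.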

Variant | protein stability index
TLRQKAEADKNDKAVKGLVVLLFE [D17G] | 2.26
TLRQKAEADKNDKAFKDLVVLLFE [V15F] | 2.91
TLRQKAEADKNDKAAKDLVVLLFE [V15A] | 3.1
TLRQKAEADKNDKALKDLVVLLFE [V15L] | 2.81
TLRQKAEADKNDKADKDLVVLLFE [V15D] | 3.2
TLRQKAEADKNDKAKKDLVVLLFE [V15K] | 3.27
TLRQKAEADKNDKASKDLVVLLFE [V15S] | 3.09
TLRQKAEADKNDKAVKDLSVLLFE [V19S] | 4.08
TLRQKAEADKNDKAVKDLHVLLFE [V19H] | 4.22
TLRQKAEADKNDKAVKDLKVLLFE [V19K] | 4.26
TLRQKAEADKNDKAVKDLQVLLFE [V19Q] | 4.23
TLRQKAEADKNDKAVKDLRVLLFE [V19R] | 4.18
TLRQKAEADKNDKAVKDLMVLLFE [V19M] | 2.44
CLRQKAEADKNDKAVKDLVVLLFE [T1C] | 2.26
LLRQKAEADKNDKAVKDLVVLLFE [T1L] | 2.3
DLRQKAEADKNDKAVKDLVVLLFE [T1D] | 3.58
PLRQKAEADKNDKAVKDLVVLLFE [T1P] | 3.57
ALRQKAEADKNDKAVKDLVVLLFE [T1A] | 3.35
TGRQKAEADKNDKAVKDLVVLLFE [L2G] | 3.13

Variant | protein stability index
TCRQKAEADKNDKAVKDLVVLLFE [L2C] | 3.12
TMRQKAEADKNDKAVKDLVVLLFE [L2M] | 2.95
TSRQKAEADKNDKAVKDLVVLLFE [L2S] | 3.05
TLRQKAEADVNDKAVKDLVVLLFE [K10V] | 2.57
TLRQKAEADQNDKAVKDLVVLLFE [K10Q] | 2.98
TLRQKAEADFNDKAVKDLVVLLFE [K10F] | 2.53
TLRQKAEADINDKAVKDLVVLLFE [K10I] | 3.06
TLRQKAPADKNDKAVKDLVVLLFE [E7P] | 2.58
TLRQKACADKNDKAVKDLVVLLFE [E7C] | 2.28
TLRQKAQADKNDKAVKDLVVLLFE [E7Q] | 1.9
TLRQKAYADKNDKAVKDLVVLLFE [E7Y] | 1.79
TLRQKAKADKNDKAVKDLVVLLFE [E7K] | 2
TLRQKAGADKNDKAVKDLVVLLFE [E7G] | 2.24
TLRQKAEADKNDDAVKDLVVLLFE [K13D] | 2.63
TLRQKAEADKNDCAVKDLVVLLFE [K13C] | 2.84
TLRQKAEADKNDPAVKDLVVLLFE [K13P] | 3.22
TLRQKAEADKNDGAVKDLVVLLFE [K13G] | 2.77
TLRQKAEADKNDNAVKDLVVLLFE [K13N] | 2.85

Variants of: B2
Test: as above
Settings: c terminus: a fixed tail appended

Variant | protein stability index
DLSRLVNCLTGEGEDTRGSASEMK [L18G] | 1.4
DLSRLVNCLTGEGEDTRESASEMK [L18E] | 2.48
DLSRLVNCLTGEGEDTRYSASEMK [L18Y] | 3.12
DLSRLVNCPTGEGEDTRLSASEMK [L9P] | 2.87
DLSRLVNCRTGEGEDTRLSASEMK [L9R] | 2.54
DLSRLVNCHTGEGEDTRLSASEMK [L9H] | 3.78
DLSRLVNCITGEGEDTRLSASEMK [L9I] | 3.04
DLSRLVNCSTGEGEDTRLSASEMK [L9S] | 2.62
DLSRLVNCMTGEGEDTRLSASEMK [L9M] | 4.05
DLSRLPNCLTGEGEDTRLSASEMK [V6P] | 4.84
DLSRLTNCLTGEGEDTRLSASEMK [V6T] | 3.08
DLSRLVNCLTGEGEDTRLRASEMK [S19R] | 2.6
DLSRLVNCLTGEGEDTRLGASEMK [S19G] | 3.56
DGSRLVNCLTGEGEDTRLSASEMK [L2G] | 5.22
DPSRLVNCLTGEGEDTRLSASEMK [L2P] | 5.35
DDSRLVNCLTGEGEDTRLSASEMK [L2D] | 4.32
DHSRLVNCLTGEGEDTRLSASEMK [L2H] | 5.29
KLSRLVNCLTGEGEDTRLSASEMK [D1K] | 4.18
PLSRLVNCLTGEGEDTRLSASEMK [D1P] | 4.33

Variant | protein stability index
FLSRLVNCLTGEGEDTRLSASEMK [D1F] | 2.77
ILSRLVNCLTGEGEDTRLSASEMK [D1I] | 2.3
DLSRLVNCLTGFGEDTRLSASEMK [E12F] | 1.63
DLSRLVNNLTGEGEDTRLSASEMK [C8N] | 3.02
DLSRLVNCLTGECEDTRLSASEMK [G13C] | 2.94
DLSRLVNCLTGEQEDTRLSASEMK [G13Q] | 2.54
DLSRLVNCLTGEVEDTRLSASEMK [G13V] | 2.65
DLSRLVNCLTGEGYDTRLSASEMK [E14Y] | 2.83
DLSRLVNCLTGEGCDTRLSASEMK [E14C] | 3.36
DLSRLVNCLTGEGDDTRLSASEMK [E14D] | 1.66
DLSRLVNCLTGEGLDTRLSASEMK [E14L] | 2.27
DLSRLVNCLTGEGEDTRLSWSEMK [A20W] | 3.38
DLSRLVNCLTGEGEDTRLSCSEMK [A20C] | 2.31
DLSRLVNCLTGEGEDTRLSASENK [M23N] | 3.46
DLSRLVNCLTGEGEDTRLSASERK [M23R] | 2.68
DLSRLVNCLTGEGEDTRLSASECK [M23C] | 2.85
DLSRLVNCLTGEGEDTRLSASFMK [E22F] | 2.21
DLSRLVNCLTGEGEDTRLSASSMK [E22S] | 3.35
DLSRLVNCLTGEGEDTRLSASRMK [E22R] | 2.88

Variant | protein stability index
DLSRLVNCLTIEGEDTRLSASEMK [G11I] | 3
DLSWLVNCLTGEGEDTRLSASEMK [R4W] | 3.45
DLSPLVNCLTGEGEDTRLSASEMK [R4P] | 3.66
DLSILVNCLTGEGEDTRLSASEMK [R4I] | 2.48
DLSRLVNCLTGEGEDTRLSASEMM [K24M] | 2.45
DLSRLVNCLTGEGEDTRLSASEMN [K24N] | 2.99
DLSRLVNCLTGEGEDTRLSASEMP [K24P] | 2.67
DLSRLVNCLTGEGEDTYLSASEMK [R17Y] | 2.81
DLSRLVNCLTGEGEDTALSASEMK [R17A] | 3.68
DLSRLVNCLQGEGEDTRLSASEMK [T10Q] | 3.61
DLSRLVNCLSGEGEDTRLSASEMK [T10S] | 3.17
DLSRLVNCLTGEGEYTRLSASEMK [D15Y] | 2.06
DLSRLVNCLTGEGEPTRLSASEMK [D15P] | 2.62
DLWRLVNCLTGEGEDTRLSASEMK [S3W] | 1.38
DLERLVNCLTGEGEDTRLSASEMK [S3E] | 2.78
DLTRLVNCLTGEGEDTRLSASEMK [S3T] | 2.32
DLSRLVNCLTGEGEDTRLSAKEMK [S21K] | 4.3
DLSRLVNCLTGEGEDTRLSAVEMK [S21V] | 2.17
DLSRLVNCLTGEGEDTRLSAGEMK [S21G] | 1.68
